Test results as given in patent US7049400.

Target: MD9 (mammalian version of D9 mutant, EGFP-DEVD) (Aequorea victoria (Water jellyfish) (Mesonema victoria)) [GFP: P42212]
Assay: cell-based or functional assay

decrease in relative fluorescence intensity of mutant GFP in comparison to wild type GFP: 50%
Substance: activated caspase-3 in HeLa cells induced to apoptosis by TNFα and cycloheximide (from UniProt P42574 29-277) (enzyme)
